# Test system: O=C1CCCCC1
# Assay: purified protein
# Conditions: table prints only 'substrate', cyclohexanone taken from the standard assay (Figure 2: 100 μM NADPH, 50 mM TrisHCl pH 8.5)
substance,measurement,value
CHMOAcineto (CHMOwt) (Acinetobacter johnsonii),Km,6.7 ± 2.0 µM

# Source: publication PMC9552169, “Mutations Increasing Cofactor Affinity, Improve Stability and Activity of a Baeyer–Villiger Monooxygenase” (ACS Catalysis, 2022)
